Source: the supplement of paper PMC10598134
± gives the standard deviation.

Assay: collision cross section of unmodified peptide (TIMS, N2, iRT-aligned); higher = larger / more extended gas-phase ion
How it was run: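 Collision cross section was derived from the Mason-Schamp equation. Each value averages 1–3 technical replicates of the most abundant feature per charge state, measured on a timsTOF Pro/HT in dda-PASEF mode (nitrogen, ~2.4 mbar) after a 120-min nanoflow C18 gradient at 60 °C. Synthetic peptide pools (~100 fmol/µL in 2% acetonitrile/0.1% formic acid, iRT standard spiked 1:40) were identified with MaxQuant, and 1/K0 was calibrated with three reference ions and aligned run-wise to the median iRT peptide deviation.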

Row | Substance | collision cross section (charge state: 2) | collision cross section (charge state: 3)
1 | EEKPAVTAAPK | 359.42 ± 0.68 Å² | 467.02 ± 0.22 Å²
2 | FTEYETQVK | 363.82 ± 1.3 Å² | –
3 | LGPNDQYK | 325.88 ± 0.73 Å² | –
4 | FVDSKVGEFSGANK | 415.64 ± 1.8 Å² | –
5 | SYVDTGGVSR | 337.16 ± 0.15 Å² | –
6 | VETFSGVYK | 332.43 ± 0.59 Å² | –
7 | GRGLPGPAESLR | 364.16 ± 0.25 Å² | 446.18 ± 17 Å²
8 | FPGVGVLPGVPTGAGVKPK | 467.47 ± 1.8 Å² | 560.63 ± 0.35 Å²
9 | VQGGALEDSQLVAGVAFKK | 499.26 ± 4.6 Å² | 546.92 ± 0.83 Å²
10 | VGADGTVFATR | 348.87 ± 0.14 Å² | –
11 | PGNSGIR | 278.56 ± 0.86 Å² | –
12 | ITESVAETAQTIK | 394.65 ± 0.14 Å² | –
13 | YIDNQVVSTKGER | 414.64 ± 0.66 Å² | 500.48 ± 1 Å²
14 | GRGVGSPEPGPTAPYLGRR | – | 516.55 Å²
15 | TSYAQHQQVR | 367.57 ± 0.48 Å² | 444.63 ± 0.86 Å²
16 | VGTASVLQPVKK | 400.02 ± 0.9 Å² | 461.91 ± 3 Å²
17 | IPQEKCILQTDVK | 428.77 ± 2.5 Å² | 470.55 ± 3.7 Å²
18 | AAYQAAIRGVGSAQSR | 436.77 ± 1.2 Å² | 509.17 ± 1.3 Å²
19 | GEPGIPAIPGIR | 347.87 ± 0.23 Å² | –
20 | VYPSSLSK | 317.31 ± 0.73 Å² | –
21 | DTGEKLTVAENEAETK | 436.86 ± 2.7 Å² | 520.99 ± 1.8 Å²
22 | GSGLGARGSSYGVTSTESYK | 471.67 Å² | 515.78 ± 1.1 Å²
23 | SDSGKPYYYNSQTK | 416.14 ± 3 Å² | 478.86 ± 16 Å²
24 | ISALQGKLSK | 353.47 ± 1.4 Å² | 435.93 ± 5.2 Å²

Row | Substance | collision cross section (charge state: 2) | collision cross section (charge state: 3)
25 | KVTLSVLSR | 348.44 ± 0.58 Å² | 443.31 ± 0.22 Å²
26 | RFSPPSSSLQPGK | 393.03 ± 0.67 Å² | 484.72 ± 0.22 Å²
27 | KFGVLSDNFK | 368.49 ± 1.5 Å² | 446.92 ± 3.4 Å²
28 | SALAAAQTQVAEYK | 422.48 ± 1.1 Å² | –
29 | YGLIFHSTFIGRAAAK | – | 526.88 Å²
30 | GVEAVGSYAENQR | 378.71 ± 0.16 Å² | 463.38 ± 1.1 Å²
31 | GLPGEPGPR | 309.4 ± 0.22 Å² | –
32 | ASTPGAAAQIQEVK | 395.93 ± 0.14 Å² | –
33 | ITESVAETAQTIKK | 434.75 ± 1.5 Å² | 508.11 ± 2.5 Å²
34 | STNVTVAAARGIK | 399.07 ± 1.1 Å² | 480.75 ± 3.1 Å²
35 | DYNVTANSK | 328.46 ± 2 Å² | –
36 | RLPNVHGR | 332.52 ± 0.039 Å² | 419.7 ± 5.1 Å²
37 | TLHLSHLNRFPAR | – | 511.92 ± 1.2 Å²
38 | GPPGAKGNK | 312.31 ± 1.7 Å² | –
39 | LGVATVAKGVCGACK | 433.92 ± 2.8 Å² | 487.58 ± 4.2 Å²
40 | GPKGQQGEPGPK | 356.26 ± 0.79 Å² | 451.77 ± 0.63 Å²
41 | HELQANCYEEVKDR | 443.76 ± 2.4 Å² | 527.87 ± 1.3 Å²
42 | GQDSTIAASEQQVAAR | 416.79 ± 0.66 Å² | 495.1 ± 0.23 Å²
43 | PRLPATGTFK | 354.31 ± 1.3 Å² | 450.95 ± 3.9 Å²
44 | FSYTSQHSDYGQR | – | 485.4 ± 1 Å²
45 | ETTPSSLAVTQTMATK | 434.06 ± 0.13 Å² | –
46 | FEGAIYR | 317.08 ± 0.15 Å² | –
47 | KDYQPGITFIVVQK | – | 508.05 ± 1.2 Å²
48 | TTLTSDESVKDHTTAGR | – | 528.1 ± 0.21 Å²

Row | Substance | collision cross section (charge state: 2) | collision cross section (charge state: 3)
49 | PGLQGPR | 285.1 ± 4.4 Å² | –
50 | THLGEALAPLSK | 380.02 ± 0.67 Å² | 462.22 ± 1 Å²
51 | LSFGLEDEPLETATK | 426.44 ± 0.65 Å² | 496.99 ± 0.21 Å²
52 | SNEEGSEEKGPEVR | 397.33 ± 0.57 Å² | 477.66 ± 4.4 Å²
53 | GFALVGVGSEASSKK | 433.33 ± 1.5 Å² | 506.74 ± 2.3 Å²
54 | ATAVVDGAFK | 329.06 ± 0.69 Å² | –
55 | SGATAGAAGGRGK | 361.16 ± 1.5 Å² | 443.5 ± 4.6 Å²
56 | GTVPDDAVEALADSLGKK | 478 ± 3.1 Å² | 520.87 ± 1.8 Å²
57 | GGGDRGGFGPGK | 338.46 ± 2.1 Å² | 414.71 ± 5.6 Å²
58 | LGPPGNPGPSGSPGPK | 383.56 ± 0.58 Å² | 453.1 ± 18 Å²
59 | SFSASGAQIVSR | 366.99 ± 0.14 Å² | –
60 | TQAEGQGQGRGLGLVSAVR | – | 513.29 ± 0.77 Å²
61 | IISSIEQKEENK | 409.72 ± 2.2 Å² | 479.1 ± 6.7 Å²
62 | YTQVGPDHNR | 354.55 ± 0.7 Å² | 423.12 ± 2 Å²
63 | GGGGGRGGLHDFR | 368.29 ± 0.36 Å² | 457.27 ± 2.8 Å²
64 | PGGLGSSSLYGLGASRPR | 472.2 ± 0.073 Å² | 533.78 ± 0.86 Å²
65 | GGGGGGGGGAPRGR | 341.22 ± 1.4 Å² | 426.09 ± 5.4 Å²
66 | VFIGNLNTLVVKKK | – | 483.04 ± 2.6 Å²
67 | GEVQVSDKER | 363.87 ± 0.37 Å² | 439.27 ± 4.5 Å²
68 | GDYDLNAVR | 340.54 ± 0.15 Å² | –
69 | IGSLDNITHVPGGGNK | – | 470.46 ± 1.9 Å²
70 | TVTNAVVTVPAYFNDSQR | 471.11 ± 0.99 Å² | 576.65 ± 1.1 Å²
71 | SRFYSGFNSR | 370.83 ± 0.54 Å² | 436.82 ± 3.8 Å²
72 | ITASLCDLKSR | 397.44 ± 4.9 Å² | 460.65 ± 3.9 Å²

Row | Substance | collision cross section (charge state: 2) | collision cross section (charge state: 3)
73 | LGILPVGRGK | 351.11 ± 0.11 Å² | 438.91 ± 4.7 Å²
74 | VYVGNLGTGAGK | 357.65 ± 0.15 Å² | –
75 | VPGALAAAKAAK | 365.46 ± 0.4 Å² | 442.33 ± 1.2 Å²
76 | TLTPASSPVSSPSK | 389.93 ± 0.025 Å² | –
77 | GDAGEPGRPGSPGK | 357.76 ± 0.58 Å² | 449.7 ± 1.2 Å²
78 | IHNAENIQPGEQKYEYK | 475.76 ± 2.4 Å² | 534.89 ± 9.6 Å²
79 | LQLGTPPPLLAARLVPPR | – | 572.92 ± 0.68 Å²
80 | VEPIHAVVLPRGK | 414.74 ± 1.1 Å² | 483.53 ± 1.8 Å²
81 | TTEETSKPK | 341.31 ± 0.82 Å² | 430.05 ± 3.7 Å²
82 | SYISSQTNDTHK | 399.56 ± 0.14 Å² | 459.19 ± 1.2 Å²
83 | GGSAGGRGFFR | 360.79 ± 0.54 Å² | 432.59 ± 6.7 Å²
84 | LDINTNTYTSQDLK | 418.99 ± 0.69 Å² | –
85 | YEITEQR | 326.96 ± 0.72 Å² | –
86 | GTITVSAQELKDNR | 437.3 ± 1.6 Å² | 507.47 ± 4.6 Å²
87 | ISSNFSSIIAEKLR | 430.92 ± 3.1 Å² | 511.25 ± 4.9 Å²
88 | DYSVTANSK | 329.32 ± 0.58 Å² | –
89 | GDIGETGVPGAEGPR | 381.04 ± 0.92 Å² | –
90 | GLPGLAGDHGEFGEK | 432.07 ± 1 Å² | 504.1 ± 0.34 Å²
91 | DVFISAAER | 340.13 ± 0.68 Å² | –
92 | AYDATHLVK | 353.02 ± 0.48 Å² | 420.22 ± 1.4 Å²
93 | DLATVYVDVLK | 382.78 ± 0.75 Å² | –
94 | SLYASSPGGVYATR | 405.12 ± 0.66 Å² | 482.72 ± 0.22 Å²
